{"source": "patent US9623039B2", "about": "“Treatment and prevention of pathological conditions using iduna related techniques and compositions” (VALTED, LLC, priority 2010, dated 2017)", "molecules": {"B1": {"name": "PARG: PAR glycohydrolase, which degrades PAR (protein, UniProt Q86W56 1-976, looked up)", "Poly(ADP-ribose) …": "MNAGPGCEPCTKRPRWGAATTSPAASDARSFPSRQRRVLDPKDAHVQFRVPPSSPACVPGRAGQHRGSATSLVFKQKTITSWMDTKGIKTAESESLDSKENNNTRIESMMSSVQKDNFYQHNVEKLENVSQLSLDKSPTEKSTQYLNQHQTAAMCKWQNEGKHTEQLLESEPQTVTLVPEQFSNANIDRSPQNDDHSDTDSEENRDNQQFLTTVKLANAKQTTEDEQAREAKSHQKCSKSCDPGEDCASCQQDEIDVVPESPLSDVGSEDVGTGPKNDNKLTRQESCLGNSPPFEKESEPESPMDVDNSKNSCQDSEADEETSPGFDEQEDGSSSQTANKPSRFQARDADIEFRKRYSTKGGEVRLHFQFEGGESRTGMNDLNAKLPGNISSLNVECRNSKQHGKKDSKITDHFMRLPKAEDRRKEQWETKHQRTERKIPKYVPPHLSPDKKWLGTPIEEMRRMPRCGIRLPLLRPSANHTVTIRVDLLRAGEVPKPFPTHYKDLWDNKHVKMPCSEQNLYPVEDENGERTAGSRWELIQTALLNKFTRPQNLKDAILKYNVAYSKKWDFTALIDFWDKVLEEAEAQHLYQSILPDMVKIALCLPNICTQPIPLLKQKMNHSITMSQEQIASLLANAFFCTFPRRNAKMKSEYSSYPDINFNRLFEGRSSRKPEKLKTLFCYFRRVTEKKPTGLVTFTRQSLEDFPEWERCEKPLTRLHVTYEGTIEENGQGMLQVDFANRFVGGGVTSAGLVQEEIRFLINPELIISRLFTEVLDHNECLIITGTEQYSEYTGYAETYRWSRSHEDGSERDDWQRRCTEIVAIDALHFRRYLDQFVPEKMRRELNKAYCGFLRPGVSSENLSAVATGNWGCGAFGGDARLKALIQILAAAAAERDVVYFTFGDSELMRDIYSMHIFLTERKLTVGDVYKLLLRYYNEECRNCSTPGPDIKLYPFIYHAVESCAETADHSGQRTGT"}, "B2": {"name": "Iduna C60A: Iduna RING finger point mutant lacking E3 ligase activity (protein, UniProt Q9NTX7 1-359, looked up, variant C60A)", "E3 ubiquitin-protein ligase …": "MMAGCGEIDHSINMLPTNRKANESCSNTAPSLTVPECAICLQTCVHPVSLPCKHVFCYLAVKGASWLGKRCALCRQEIPEDFLDKPTLLSPEELKAASRGNGEYAWYYEGRNGWWQYDERTSRELEDAFSKGKKNTEMLIAGFLYVADLENMVQYRRNEHGRRRKIKRDIIDIPKKGVAGLRLDCDANTVNLARESSADGADSVSAQSGASVQPLVSSVRPLTSVDGQLTSPATPSPDASTSLEDSFAHLQLSGDNTAERSHRGEGEEDHESPSSGRVPAPDTSIEETESDASSDSEDVSAVVAQHSLTQQRLLVSNANQTVPDRSDRSGTDRSVAGGGTVSVSVRSRRPDGQCTVTEV", "modifications": "GFP tag"}, "B3": {"name": "GST-Iduna: full length recombinant GST-Iduna fusion protein (protein)", "chain": "MEMAGCGEIDHSINMLPTNKKANESCSNTAPSLTVPECAICLQTCVHPVSLPCKHVFCYLCVKGASWLGKRCALCRQEIPEDFLDKPTLLSPEELKAASRGNGEYAWYYEGRNGWWQYDERTSRELEDAFSKGKKNTEMLIAGFLYVADLENMVQYRRNEHGRRRKIKRDIIDIPKKGVAGLRLDCDTNTVNLARESSADGADSGSAQTGASVQLAVPSSTRPLTSVDGQLTSPVTPSPDAGISLEDSFAHLQLSGDSIAERSHRGEGEEDHESPSSGRVPDTSVEETESDASSDSEDAPVVVAQHSLTQQRPLVPNGNQTVADQSDRSGTDRSVAGGGTMSVNVRSRRPDGQCTVIEV", "modifications": "left off: a dimerising Fc or GST", "notes": "full length recombinant GST-Iduna fusion protein"}}, "key": {"[1]": {"tested_on": "PARsylated PARP1", "assay": "PARG activity on PARsylated PARP1", "assay_type": "biochemical", "method": "FIG. 85—PARG activity was measured by incubation with PARsylated PARP1 as indicated. The level of PARsylated PARP1 (Rb-PARP1) was monitored by immunoblot with anti-PAR antibody. There is a slight difference in the sensitivity of assays used to detect PAR, which accounts for the ability of 1 unit of PARG to eliminate PAR in B, but 1.2 units of PARG is required in A.\nAs disclosed herein, Iduna contains a consensus PBM is its WWE domain and that mutating the hydrophobic amino acids 155Y and 156R to alanine to create an Iduna YRAA mutant disrupts PAR binding to Iduna. MCF7 cells were transfected with GFP-Iduna, GFP-Iduna C60A and GFP-Iduna YRAA. 48 hours later Iduna was immunoprecipitated with antibodies to GFP followed by immunoblot analysis with antibodies to PAR. Iduna and Iduna C60A bind PAR whereas Iduna YRAA is incapable of binding PAR (FIG. 83). To confirm that Iduna binding to PARP1 is dependent on PARsylation of PARP1, binding of automodified PARP1 with ^32P-NAD was monitored in a GST pull down experiment with Histone H3 as a positive control (FIGS. 84 and 85). […] Iduna and Iduna-C60A bind to a range of PAR polymers of varying length similar to H3, whereas Iduna-YRAA fails to bind to PAR, as determined by phosphorimager detection of radiolabeled PAR polymer bound to Iduna, Iduna-C60A and H3 after separation by Tris-borate-EDTA PAGE (FIG. 87)."}, "[2]": {"tested_on": "MCF7 cells", "assay": "MNNG cell death assay in stable MCF7 cell lines", "assay_type": "cell-based, human", "details": "MNNG 500 μM 15 min, 24 hr", "method": "Cell death assay. GFP, GFP-Iduna, GFP-Iduna C60A, GFP-Iduna YRAA, shRNA-Iduna and shRNA-Iduna/GFP-Iduna stably transfected cells were treated with 500 μM MNNG for 15 min, and replaced with fresh growth media. After 24 h, the cells were stained with […] Hoechst 33342 (Invitrogen) and […] propidium iodide (PI) (Invitrogen) and counted by automated computer-assisted program (Carl Zeiss). The percentage of cell death was determined as the ratio of live to dead cells compared with the percentage of cell death in control."}, "[3]": {"tested_on": "MCF7 cells", "assay": "Cell cycle analysis after γ-irradiation", "assay_type": "cell-based, human", "details": "γ-irradiation 2 Gy", "method": "Cell cycle analysis. Studies were performed to evaluate the cell cycle response of each stable cell lines. Cells were plated onto 150 mm culture dishes and cultured for 24 h at 37° C. with fresh growth medium. Following replacement of growth medium, cells were irradiated at 2 Gy with a Gammacell irradiator. After 12 h, cells were washed once with PBS and incubated with PBS containing 0.2% EDTA for 5 min at 37° C., thereafter scraped with fresh growth medium and collected at 500×g at 4° C. Collected cells were washed once with ice cold PBS and then fixed with 70% ethanol. Cells were washed once with PBS containing 1% FBS and resuspended into propidium iodide (PI) staining buffer (PBS, pH 7.4, 50 μg/ml PI, 1% FBS, 100 μg/ml RNase) for 30 min at 37° C. Cells were monitored for DNA content by a flow cytometry (BD Biosciences) and then data were analyzed with FlowJo using Dean-Jett-Fox model for the quantification of each cell cycle phase."}, "[4]": {"tested_on": "MCF7 cells", "assay": "Alkaline comet assay after γ-irradiation", "assay_type": "cell-based, human", "details": "γ-irradiation 2 Gy, 15 min", "method": "Comet assay. Single cell gel electrophoresis assay was performed by following the manufacturer's instructions. Briefly, established stable cell lines were irradiated (2 Gy) with a Gammacell irradiator and then further incubated for 15 min at 37° C. Cells were collected at 500×g at 4° C. and rinsed twice with ice cold PBS (Ca++ and Mg++ free). A total of 5×10^5 cells were counted and resuspended into PBS (Ca++ and Mg++ free) and then combined with LMAgarose (low melting agarose) at a ratio 1:10 (v/v). Each sample was spotted into CometSlide™ and lysed with buffer (supplied with CometAssay Kit, Trevigen) for 1 h at 4° C. After draining the excess lysis buffer, slides were immersed with alkaline unwinding solution (200 mM NaOH, pH>13, 1 mM EDTA) for 1 h at RT. To the single cell electrophoresis, each comet slide was placed in electrophoresis slide tray with 1 L of alkaline unwinding solution and applied to 21 Volts for 30 min for electrophoresis. After draining the excess electrophoresis buffer, slides were rinsed twice with dH2O and then fixed with 70% ethanol for 5 min. To facilitate single cell observation, slides were dried at 40° C. and stained with SYBR Green I (supplied with CometAssay Kit) for 5 min at 4° C. […] Fifty cells per slide were monitored and the DNA damage was calculated using comet tail length and head diameter parameters."}, "[5]": {"tested_on": "MCF7 cells", "assay": "Determination of apurinic/apyrimidinic (AP) sites", "assay_type": "cell-based, human", "details": "1 h", "method": "Determination of apurinic/apyrimidinic (AP) sites. The amount of AP sites in genomic DNA was monitored by a DNA damage quantification kit (BioVision). Briefly, cells were treated with either DMSO or 500 μM MNNG for 15 min, and then replaced with normal growth media. After 1 h, cells were scraped and harvested at 500×g for 5 min and washed once with PBS. Genomic DNA was isolated using a Biovision Genomic DNA Isolation Kit (BioVision) and then AP sites on the 0.5 μg of genomic DNA was labeled with biotin by the Aldehyde Reactive Probe (ARP) reagent (supplied with the DNA damage quantification kit) for 1 h at 37° C. To precipitate the biotin-tagged DNA, sample was mixed with TE buffer containing 2% glycogen and then sequentially incubated with ice cold 70% ethanol for 30 min at −20° C. […] To determine of the number of AP sites in DNA, samples were dissolved in TE buffer and then transferred into 96 well plate with DNA binding buffer (supplied with the DNA damage quantification kit). After 12 h, samples were washed five times with DNA washing buffer (supplied with the DNA damage quantification kit) and then biotin labeled AP sites were quantified using an avidin-biotin assay. Each sample and standards (supplied with a DNA damage quantification kit) were run in triplicate and the OD was measured at 650 nm using a 96-well plate reader (SpectraMax Plus384 Microplate Reader)."}, "[6]": {"tested_on": "PAR polymer", "assay": "PAR polymer overlay / dot blot (far western)", "assay_type": "binding", "details": "PAR polymer overlay assay", "text": "PAR binding is specified by a sequence of approximately 20 amino acids containing N-terminal basic amino acids and a C-terminal region containing alternating hydrophobic and basic amino acids (FIG. 24). Iduna contains a predicted PAR polymer binding sequence within amino acids 144-167 of the WWE domain (FIGS. 1 and 24). The PAR-binding domain was defined by comparing to the consensus sequence for PAR-binding and the known PAR binding domain of Histone 3 (FIG. 24). HEK293 cells were transfected with GFP, GFP-Iduna lacking the WWE domain (GFP-IdunaΔWWE), GFP-Iduna lacking the RF domain (GFP-IdunaARF), and full-length GFP-Iduna, followed by immunoprecipitation with a GFP antibody. […] Only GFP-Iduna-ARF and full-length GFP-Iduna can co-immunoprecipiate PAR binding proteins (FIG. 25). The critical amino acids in the PAR binding domain, 156Y and 157R, were mutated to 156A and 157A in full length Iduna (Iduna-YRAA). […] Similar results are obtained with a biotin-tagged PAR polymer followed by detection with an anti-biotin antibody (FIG. 26). […] Histone H3 is a known PAR binding protein and was used as a positive control for the PAR overlay assay. […] An assay based on electrophorectic mobility shift (EMSA) for PAR binding was developed to monitor PAR polymer binding to Iduna. […]"}}}
{"molecule": "B1", "values": [{"measurement": "removal of PAR from PARsylated PARP1", "setting": "[1]", "result": "dose dependently removes PAR from PARsylated PARP1"}]}
{"molecule": "B2", "values": [{"measurement": "MNNG-induced cell death", "setting": "[2]", "result": "not protective"}, {"measurement": "cell cycle arrest and cell survival", "setting": "[3]", "result": "not protective"}, {"measurement": "comet head diameter and tail length", "setting": "[4]", "result": "does not prevent the reduction in head diameter and increase in tail length"}, {"measurement": "increase in AP sites after MNNG", "setting": "[5]", "result": "fails to reduce the number of AP sites"}]}
{"molecule": "B3", "values": [{"measurement": "PAR polymer binding", "setting": "[6]", "result": "binds to PAR polymer"}]}
